Source: IntAct's records for PubMed 12796778

B1: Nuclear distribution protein nudE-like 1 (Mus musculus), Q9ERR1 (parent)
chain: MDGEDIPDFSSLKEETAYWKELSLKYKQSFQEARDELVEFQEGSRELEAELEAQLVQAEQRNRDLQADNQRLKYEVEALKEKLEHQYAQSYKQVSVLEDDLSQTRAIKEQLHKYVRELEQANDDLERAKRATIVSLEDFEQRLNQAIERNAFLESELDEKESLLVSVQRLKDEARDLRQELAVRERQQEVTRKSAPSSPTLDCEKMDSAVQASLSLPATPVGKGTENSFPSPKAIPNGFGTSPLTPSARISALNIVGDLLRKVGALESKLAACRNFAKDQASRKSYVPGSVNCGVMNSNGPECPRSGRATFFHKGAVNGFDPAPPPPGLGSSRPSSAPGMLPLSV

Variants of: B1
Settings: with 1433e_mouse Ywhae

Variant | effect of a mutation on the interaction
MDGEDIPDFSSLKEETAYWKELSLKYKQSFQEARDELVEFQEGSRELEAELEAQLVQAEQRNRDLQADNQRLKYEVEALKEKLEHQYAQSYKQVSVLEDDLSQTRAIKEQLHKYVRELEQANDDLERAKRATIVSLEDFEQRLNQAIERNAFLESELDEKESLLVSVQRLKDEARDLRQELAVRERQQEVTRKSAPSAPTLDCEKMDSAVQASLSLPAAPVGKGTENSFPAPKAIPNGFGTSPLTPSARISALNIVGDLLRKVGALESKLAACRNFAKDQASRKSYVPGSVNCGVMNSNGPECPRSGRATFFHKGAVNGFDPAPPPPGLGSSRPSSAPGMLPLSV [S198A;T219A;S231A] | disrupting interaction strength
MDGEDIPDFSSLKEETAYWKELSLKYKQSFQEARDELVEFQEGSRELEAELEAQLVQAEQRNRDLQADNQRLKYEVEALKEKLEHQYAQSYKQVSVLEDDLSQTRAIKEQLHKYVRELEQANDDLERAKRATIVSLEDFEQRLNQAIERNAFLESELDEKESLLVSVQRLKDEARDLRQELAVRERQQEVTRKSAPSAPTLDCEKMDSAVQASLSLPATPVGKGTENSFPSPKAIPNGFGTSPLTPSARISALNIVGDLLRKVGALESKLAACRNFAKDQASRKSYVPGSVNCGVMNSNGPECPRSGRATFFHKGAVNGFDPAPPPPGLGSSRPSSAPGMLPLSV [S198A] | decreasing interaction strength
MDGEDIPDFSSLKEETAYWKELSLKYKQSFQEARDELVEFQEGSRELEAELEAQLVQAEQRNRDLQADNQRLKYEVEALKEKLEHQYAQSYKQVSVLEDDLSQTRAIKEQLHKYVRELEQANDDLERAKRATIVSLEDFEQRLNQAIERNAFLESELDEKESLLVSVQRLKDEARDLRQELAVRERQQEVTRKSAPSSPTLDCEKMDSAVQASLSLPATPVGKGTENSFPAPKAIPNGFGTSPLTPSARISALNIVGDLLRKVGALESKLAACRNFAKDQASRKSYVPGSVNCGVMNSNGPECPRSGRATFFHKGAVNGFDPAPPPPGLGSSRPSSAPGMLPLSV [S231A] | decreasing interaction strength
MDGEDIPDFSSLKEETAYWKELSLKYKQSFQEARDELVEFQEGSRELEAELEAQLVQAEQRNRDLQADNQRLKYEVEALKEKLEHQYAQSYKQVSVLEDDLSQTRAIKEQLHKYVRELEQANDDLERAKRATIVSLEDFEQRLNQAIERNAFLESELDEKESLLVSVQRLKDEARDLRQELAVRERQQEVTRKSAPSSPTLDCEKMDSAVQASLSLPAAPVGKGTENSFPSPKAIPNGFGTSPLTPSARISALNIVGDLLRKVGALESKLAACRNFAKDQASRKSYVPGSVNCGVMNSNGPECPRSGRATFFHKGAVNGFDPAPPPPGLGSSRPSSAPGMLPLSV [T219A] | decreasing interaction strength
